{
  "source": "paper PMC6460258",
  "key": {"[1]": {"target": "GST-tagged Lcl (recombinant full length Lcl, 18 repeats) (Legionella pneumophila)", "assay": "SPR; Biacore X100; […] (100 nM) […]"}, "[2]": {"target": "His-tagged full length Lcl (Legionella collagen-like protein) with 18 repeats (Legionella pneumophila serogroup 1, strain LU1536)", "assay": "SEC; […], PBS, 0.5 ml/min; […]"}},
  "data": [
    {"substance": "His-tagged Lcl lacking the C-terminal domain (Lcl[change]) (domain or fragment)", "values": [
      {"measurement": "Kd", "setting": "[1]", "value": 123, "unit": "nM"}
    ]},
    {"substance": "His-tagged full length Lcl (Legionella collagen-like protein) with 18 repeats (natural protein)", "values": [
      {"measurement": "stoichiometry N", "setting": "[2]", "value": 3},
      {"measurement": "Kd", "setting": "[1]", "value": 28.7, "unit": "nM"}
    ]},
    {"substance": "His-tagged Lcl lacking the collagenous repeat domain (Lcl[change]) (domain or fragment)", "values": [
      {"measurement": "Kd", "setting": "[1]", "value": 1040, "unit": "nM"}
    ]}
  ]
}
